Data from the supplement of paper PMC10567573.

B1: SPOPL (parent)
chain: AKREETKAMESQRAYRFVQGKDWG
B2: SNAP91 (parent)
chain: FATASAAVPVSTSKPSSDLLDLQP

Variants of: B1
Assay: protein stability index of a GFP-peptide fusion (GPS, HEK-293T) (PSI 1-6); higher = more stable
Settings: c terminus: a fixed tail appended
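Note: lentivirally expressed fusions sorted by FACS into six bins by GFP to DsRed ratio, PSI derived from sequencing read proportions per bin multiplied by bin number.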

Protein stability index, by site and new letter:
A1: E 3.4 | F 3.61 | G 2.82 | C 2.14 | I 2.59 | D 3.38 | H 3.61

Variants of: B2
Assay: as above
Settings: c terminus: a fixed tail appended

Protein stability index of substitutions, site by site:
S5: M 2.83 | W 3.73 | T 3.73 | H 3.33 | R 3.45 | Q 3.38 | E 4.02 | C 3.02 | G 3.54 | L 2.28 | D 4.17 | Y 1.67 | F 1.45 | A 3.46 | N 3.66
L22: A 4.49 | R 4.14 | N 4.4 | W 2.96 | C 3.84 | G 3.93 | P 4.4 | D 4.22 | F 3.59 | V 3.85 | M 3.87 | E 4.76 | Y 3.99 | Q 4.3 | K 4.16
A6: S 3.78 | I 2.41 | G 3.5 | N 4.69 | C 2.46 | D 4.22 | Y 1.96 | L 2.47 | P 3.54 | M 2.92 | Q 3.67 | W 4.07 | V 2.98 | R 3.31
L20: I 3.62 | M 3.74 | S 4.29 | W 2.97 | F 3.15 | G 4.12 | Q 4.14 | C 3.93 | K 4.33 | N 3.61 | H 3.9 | P 4.36 | R 4.09 | V 4.12 | T 3.92
K14: N 3.89 | F 2.6 | Q 4.61 | P 4.15 | D 4.36 | T 3.97 | V 4.05 | H 3.58 | G 3.97
A7: G 3.72 | D 4.5 | K 3.54 | N 3.9 | Q 3.79 | C 3.07 | L 2.93 | E 4.4 | I 3.14 | R 3.63 | H 3.24 | V 3.05
P24: Y 3.27 | D 4.52 | A 3.94 | C 3.56 | K 4.34 | I 3.3 | H 3.74 | N 3.43 | R 3.71 | T 3.88 | V 3.41 | F 2.8 | L 3.1 | E 4.53 | S 3.64
V8: T 4.12 | A 3.58 | Q 4.2 | G 4.52 | H 4.27 | N 4.32 | E 3.99 | S 3.87 | L 3.37 | D 4.64 | W 1.88 | C 3.38
A4: R 3.16 | V 3.9 | K 3.8 | M 3.31 | E 4.57 | L 2.89 | I 3.04 | F 2.06 | G 3.63 | W 1.64 | C 2.66 | S 3.8 | H 4.06 | D 4.72
T3: Y 1.98 | S 3.39 | V 4.38 | C 3.45 | N 3.24 | P 2.41 | L 3.35 | I 2.81 | D 3.8 | E 4.26
V10: R 2.85 | Q 4.61 | Y 4.29 | L 3.63 | M 3.55 | F 2.69 | C 3.18 | N 3.94 | I 3.39 | A 3.87 | D 4.18 | P 4.36 | H 4.01 | E 4.23 | T 4.17
S11: Y 2.17 | H 3.01 | L 3.03 | M 3.5 | Q 3.24 | P 2.88 | V 3.62 | R 3.77 | G 3.73 | N 3.76 | I 3.15 | C 3.15 | E 4.2 | D 4.42 | T 3.71 | A 3.44
S13: V 3.52 | N 3.66 | I 3.42 | Q 3.8 | H 3.66 | R 3.94 | G 3.95 | P 3.83 | L 3.09 | C 2.57 | Y 3.36 | E 3.67 | T 3.38 | A 3.82
P15: S 3.73 | C 3.15 | I 3.52 | E 4.89 | R 2.9 | N 3.85 | H 3.96 | M 3.17 | V 3.14 | A 3.28 | T 3.74
S17: C 3.41 | W 3.31 | F 2.51 | V 3.47 | Q 3.72 | T 4.21 | D 4.22 | A 3.68 | N 3.85 | I 2.88 | G 3.68 | K 3.47 | Y 3.2 | R 3.25 | E 4.13 | L 3.35 | H 3.66
A2: N 3.85 | T 3.18 | Y 3.77 | G 4.09 | W 2.96 | V 1.65 | Q 4.11 | H 2.71 | E 4.5 | F 3.21 | M 3.79 | R 3.46 | D 5
P9: C 2.27 | H 3.46 | T 3.73 | S 3.26 | I 1.87 | N 3.75 | D 3.78 | M 2.29 | G 2.3 | R 3.05 | L 1.92 | V 2.24 | E 3.99 | F 1.93
T12: L 3.74 | C 2.58 | W 2.61 | Y 3.28 | A 4.36 | M 2.78 | E 4.44 | S 4.49 | R 3.13 | N 3.7 | F 3.07 | G 3.91 | I 3.51 | K 3.61
F1: D 5.71 | G 4.89 | V 4.54 | Y 3.8 | S 4.99 | A 4.84 | T 4.91 | H 5.52 | Q 5.06 | E 5.69 | K 4.92 | R 4.99 | L 4.62 | M 4.67 | C 4.64 | P 4.84
D18: M 2.87 | Y 3.37 | S 2.99 | N 3.14 | P 3.3 | K 2.98 | C 3.42 | T 3.17 | R 2.84 | A 3.44 | H 3.04 | G 3.42 | I 3.37 | V 3.17
L19: P 4.39 | W 2.5 | R 3.98 | M 3.81 | G 4.12 | F 3.7 | S 4.35 | V 3.95 | Q 3.96 | I 3.95 | A 4.02 | C 4.06 | D 4.64 | H 4.26
D21: M 3.23 | G 4.09 | I 2.93 | K 3.41 | F 2.52 | S 3.25 | V 3.23 | E 4.22 | T 3.51 | P 3.79 | C 2.91 | N 3.59
S16: L 2.83 | F 2.99 | Y 3.08 | D 4.24 | Q 3.93 | C 3.36 | P 3.5 | I 3.24 | E 3.87 | R 3.3 | A 4.02 | T 3.03 | W 1.54
Q23: L 3.38 | N 4.08 | G 3.79 | T 3.96 | D 3.97 | S 4.18 | M 3.29 | F 2.7 | V 3.4 | C 3.61 | H 3.35 | P 4.13 | I 2.92
